Assay results as given in article PMC4705688.

Biological target: His-Cmr (Mycobacterium tuberculosis H37Rv, UniProt P9WMH5 1-244)
Test: EMSA

Chain of His-Cmr (P9WMH5 whole entry): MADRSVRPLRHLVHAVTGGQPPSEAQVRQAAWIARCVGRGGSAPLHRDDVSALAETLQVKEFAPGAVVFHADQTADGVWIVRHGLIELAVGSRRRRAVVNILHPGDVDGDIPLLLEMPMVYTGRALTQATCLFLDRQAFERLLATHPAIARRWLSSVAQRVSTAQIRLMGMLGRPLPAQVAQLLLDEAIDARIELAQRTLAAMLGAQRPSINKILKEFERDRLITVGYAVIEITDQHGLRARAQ

B1: 1C1 40 bp overlap (dsDNA)
DNA 1: GCGTGGTTCAGCTTGTCACCGGTGACACTGTGTTGGCTTC
DNA 2: GAAGCCAACACAGTGTCACCGGTGACAAGCTGAACCACGC
binding result: binds
